Assay [1] concerns the target BdhE (bifunctional dehydrogenase E) from Halomonas eurihalina (Halomonas eurihalina). Description: native gel or EMSA; blue native PAGE, 3-14% polyacrylamide gradient, 150 V for ~75 minutes; purified AdhE 5 or 10 ug, BdhE 1 or 2 ug. A general note: A gel shift assay detects complexes by their altered migration in electrophoresis.
Assay [2] shares this target. Description: cryo-EM structure; single particle analysis, 2.02 mg/mL AdhE or 1.35 mg/mL BdhE, no cofactors added, Talos Arctica 200 kV, CryoSPARC.

As to “BdhE (bifunctional dehydrogenase E) from Halomonas eurihalina (enzyme)”, the stoichiometry N in assay [1] and in assay [2] was 4 throughout.

By stoichiometry N is commonly meant the number of molecules, sites or subunits per partner or assembly.

(Values after article PMC12454647.)
